Data taken from US20210107998A1 (Boehringer Ingelheim, published 2021).
Values belong to the binder of their own block, whether it stands above or below them.

Columns and labels:
[1] = target: Recombinant human BAFF trimer (Boehringer Ingelheim Pharmaceuticals, Inc.) (human, UniProt Q9Y275 134-285, limits assumed); test: cell-based or functional assay
[2] = target: T1, human BAFF (human, UniProt Q9Y275 134-285, limits assumed); test: BLI (Octet RED96, streptavidin tips), compound incubated 48 h at 37 C in whole blood vs kinetic buffer
T1 construct: also called hu BAFF; hBAFF
Procedure: (§1) A whole blood interference assay was developed on an Octet RED96 to detect the effects of non-specific binding or off-target binding for compounds in the presence of whole blood (WB). The compound solutions in whole blood and 1× kinetic running buffer (1×kb) were incubated at a temperature of 37° C. for 48 hours. Kinetic measurements for the incubated compound samples were performed with an Octet RED96 equipped with streptavidin (SA) biosensor tips (ForteBio, Menlo Park, Calif.) at 27° C. The ratio of the on-rates/binding signals in buffer and whole blood were reported. A ratio <2 was considered to show no interference.

[3] = target: T2, Recombinant human IL-23 (human, UniProt P29460 23-328); test: as above
T2 construct: also called hu IL23
T2 sequence 1: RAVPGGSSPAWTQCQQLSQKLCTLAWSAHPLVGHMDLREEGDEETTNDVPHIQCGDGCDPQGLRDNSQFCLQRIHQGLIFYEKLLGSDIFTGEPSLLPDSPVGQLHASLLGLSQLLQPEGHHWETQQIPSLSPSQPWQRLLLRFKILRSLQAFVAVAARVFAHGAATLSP
T2 sequence 2: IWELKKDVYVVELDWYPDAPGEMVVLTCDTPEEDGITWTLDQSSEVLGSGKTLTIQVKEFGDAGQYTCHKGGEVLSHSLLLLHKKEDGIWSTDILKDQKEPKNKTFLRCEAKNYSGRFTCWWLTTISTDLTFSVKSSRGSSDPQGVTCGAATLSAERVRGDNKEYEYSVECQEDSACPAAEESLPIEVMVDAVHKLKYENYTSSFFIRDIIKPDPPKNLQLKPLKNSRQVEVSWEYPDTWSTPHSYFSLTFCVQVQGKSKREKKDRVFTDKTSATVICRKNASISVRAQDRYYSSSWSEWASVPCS
Procedure: as §1

[4] = target: Recombinant human BAFF 60mer (Boehringer Ingelheim Pharmaceuticals, Inc.) (human, UniProt Q9Y275 134-285, limits assumed); test: cell-based or functional assay
[5] = target: T1, human BAFF; test: SPR (ProteOn XPR36), compound captured on goat anti-human IgG Fc, antigen injected
Procedure: (§2) SPR experiments were performed on a ProteOn XPR36 instrument (Bio Rad). A GLM chip was preconditioned with sequential injections of 60 sec of 0.5% SDS, 50 mM NaOH, and 100 mM HCl at a flow rate of 30 μl/min both vertical and horizontal directions.
(§3) The preconditioned GLM chip was then activated by an injection of EDC (76.7 mg/ml) and sulfo-NHS (21.7 mg/ml) mixture with ratio of 1:1 in 6 horizontal channels. Goat-anti-human IgG (GAHA) Fc gamma (Invitrogen) at a concentration of 30 μg/ml in 10 mM, pH 5.0 sodium acetate buffer was immobilized to 8,000 resonance units on the activated GLM chip in 6 horizontal channels. The chip was finally deactivated with 1 M ethanolamine HCl in 6 horizontal channels. The prepared GAHA chip was rotated to vertical direction to capture test compounds, over 5 vertical channels and the last channel was used as a column reference. The captured chip was then rotated again to the horizontal direction for binding. […] The dissociation was allowed for 2 hour. The GAHA surface was regenerated using short pulse injection (18 seconds) of 0.85% phosphoric acid (Bio Rad) at a flow rate of 100 μl/min both horizontal and vertical directions after 10 min association and 2 hr dissociation. The regenerated GAHA was ready for another binding cycle.

[6] = target: T3, Linked human IL-23 (Boehringer Ingelheim Pharmaceuticals, Inc.) (human, UniProt P29460 23-328); test: as above
T3 sequence 1: T2 sequence 1
T3 sequence 2: T2 sequence 2
Procedure: as §2, §3

[7] = target: T4, cynomolgus IL-23 (cynomolgus, UniProt H6WS56 20-189); test: as above
Procedure: as §2, §3

[8] = target: T5, cynomolgus BAFF (cynomolgus, UniProt A0A2K5V2X4 134-285); test: as above
T5 construct: construct not described
Procedure: as §2, §3

[9] = target: T4, cynomolgus IL-23; test: cell-based or functional assay
[10] = target: T2, Recombinant human IL-23; test: cell-based or functional assay
[11] = target: T2, Recombinant human IL-23; test: cell-based or functional assay; remark: listed apart in the source

IC50, NFkB luciferase reporter, human BAFFR-CHO cells [1]: 0.072 nM
IC90, NFkB luciferase reporter, human BAFFR-CHO cells [1]: 0.293 nM
Ratio of binding signal in WB/kinetic buffer [2]: 1
Ratio of binding signal in WB/kinetic buffer [3]: 1.2
IC50, NFkB luciferase reporter, human BAFFR-CHO cells [4]: 1.3 nM
IC90, NFkB luciferase reporter, human BAFFR-CHO cells [4]: 7.39 nM
Kd [5]: < 0.015 nM
Kd [6]: < 0.015 nM
Kd [7]: < 0.015 nM
Kd [8]: < 0.015 nM
B1: Compound F (bispecific antibody, human IgG4 S228P, kappa)
chain 1: DIQMTQSPSSLSASVGDRVTITCKASRDVAIAVAWYQQKPGKVPKLLIYWASTRHTGVPSRFSGSGSRTDFTLTISSLQPEDVADYFCHQYSSYPFTFGSGTKLEIKGGGSGGGGQVQLQQSGAEVKKPGSSVRVSCKASGGTFNNNAINWVRQAPGQGLEWMGGIIPMFGTAKYSQNFQGRVAITADESTGTASMELSSLRSEDTAVYYCARSRDLLLFPHHALSPWGRGTMVTVSSLGGGSGASTKGPSVFPLAPCSRSTSESTAALGCLVKDYFPEPVTVSWNSGALTSGVHTFPAVLQSSGLYSLSSVVTVPSSSLGTKTYTCNVDHKPSNTKVDKRVESKYGPPCPPCPAPEFLGGPSVFLFPPKPKDTLYITREPEVTCVVVDVSQEDPEVQFNWYVDGVEVHNAKTKPREEQFNSTYRVVSVLTVLHQDWLNGKEYKCKVSNKGLPSSIEKTISKAKGQPREPQVYTLPPSQEEMTKNQVSLTCLVKGFYPSDIAVEWESNGQPENNYKTTPPVLDSDGSFFLYSRLTVDKSRWQEGNVFSCSVMHEALHNHYTQKSLSLSLG
chain 2: SSELTQDPAVSVALGQTVRVTCQGDSLRSYYASWYQQKPGQAPVLVIYGKNNRPSGIPDRFSGSSSGNTASLTITGAQAEDEADYYCSSRDSSGNHWVFGGGTELTVLGGGSGGGGQVQLVQSGAEVKKPGSSVKVSCKASGYTFTDQTIHWMRQAPGQGLEWIGYIYPRDDSPKYNENFKGKVTITADKSTSTAYMELSSLRSEDTAVYYCAIPDRSGYAWFIYWGQGTLVTVSSLGGGSGRTVAAPSVFIFPPSDEQLKSGTASVVCLLNNFYPREAKVQWKVDNALQSGNSQESVTEQDSKDSTYSLSSTLTLSKADYEKHKVYACEVTHQGLSSPVTKSFNRGEC
notes: Large chain: IL23A(1) VL - BAFF(1) VH - LGGGSG - IgG4-Pro-YTE; small chain: BAFF(1) VL - IL23A(1) VH - LGGGSG - CL

IC50, IL-23-induced mouse IL-17 release from mouse splenocytes [9]: 0.11 nM
IC90, IL-23-induced mouse IL-17 release from mouse splenocytes [9]: 0.88 nM
IC50, IL-23-induced mouse IL-17 release from mouse splenocytes [10]: 0.133 nM
IC90, IL-23-induced mouse IL-17 release from mouse splenocytes [10]: 0.761 nM
IC50, NFkB luciferase reporter, human BAFFR-CHO cells [1]: 0.035 nM
IC90, NFkB luciferase reporter, human BAFFR-CHO cells [1]: 0.11 nM
Ratio of binding signal in WB/kinetic buffer [2]: 1.1
Ratio of binding signal in WB/kinetic buffer [3]: 1.3
IC50, NFkB luciferase reporter, human BAFFR-CHO cells [4]: 0.006 nM
IC90, NFkB luciferase reporter, human BAFFR-CHO cells [4]: 0.014 nM
IC50, STAT3-luciferase reporter in DB lymphoblast B cells [11]: 0.189 nM
IC90, STAT3-luciferase reporter in DB lymphoblast B cells [11]: 2.33 nM
Kd [5]: < 0.015 nM
Kd [6]: < 0.015 nM
Kd [7]: < 0.015 nM
Kd [8]: < 0.015 nM
B2: Compound C (bispecific antibody, human IgG1, kappa, L234A L235A)
chain 1: DIQMTQSPSSLSASVGDRVTITCKASRDVAIAVAWYQQKPGKVPKLLIYWASTRHTGVPSRFSGSGSRTDFTLTISSLQPEDVADYFCHQYSSYPFTFGSGTKLEIKGGGSGGGGQVQLVQSGAEVKKPGASVKVSCKASGYSFSTFFIHWVRQRPGQGLEWIGRIDPNSGATKYNEKFESKVTLTRDTSISTAYMELSRLRSDDTAVYYCARGEDLLIRTDALDYWGQGTSVTVSSLGGGSGASTKGPSVFPLAPSSKSTSGGTAALGCLVKDYFPEPVTVSWNSGALTSGVHTFPAVLQSSGLYSLSSVVTVPSSSLGTQTYICNVNHKPSNTKVDKRVEPKSCDKTHTCPPCPAPEAAGGPSVFLFPPKPKDTLYITREPEVTCVVVDVSHEDPEVKFNWYVDGVEVHNAKTKPREEQYNSTYRVVSVLTVLHQDWLNGKEYKCKVSNKALPAPIEKTISKAKGQPREPQVYTLPPSREEMTKNQVSLTCLVKGFYPSDIAVEWESNGQPENNYKTTPPVLDSDGSFFLYSKLTVDKSRWQQGNVFSCSVMHEALHNHYTQKSLSLSPG
chain 2: DIQMTQSPSSLSASVGDRVSITCKASQNAGIDVAWFQQKPGKAPKLLIYSKSNRYTGVPSRFSGSGSGTDFTLTISSLQPEDFADYYCLQYRSYPRTFGGGTKLEIKGGGSGGGGQVQLVQSGAEVKKPGSSVKVSCKASGYTFTDQTIHWMRQAPGQGLEWIGYIYPRDDSPKYNENFKGKVTITADKSTSTAYMELSSLRSEDTAVYYCAIPDRSGYAWFIYWGQGTLVTVSSLGGGSGRTVAAPSVFIFPPSDEQLKSGTASVVCLLNNFYPREAKVQWKVDNALQSGNSQESVTEQDSKDSTYSLSSTLTLSKADYEKHKVYACEVTHQGLSSPVTKSFNRGEC
notes: Tetravalent format

Ratio of binding signal in WB/kinetic buffer [2]: 1
Ratio of binding signal in WB/kinetic buffer [3]: 1.1
Kd [5]: < 0.015 nM
Kd [6]: < 0.015 nM
Kd [7]: < 0.015 nM
Kd [8]: < 0.015 nM
B3: Compound E (bispecific antibody, human IgG1, kappa, L234A L235A)
chain 1: SSELTQDPAVSVALGQTVRVTCQGDSLRSYYASWYQQKPGQAPVLVIYGKNNRPSGIPDRFSGSSSGNTASLTITGAQAEDEADYYCSSRDSSGNHWVFGGGTELTVLGGGSGGGGQVQLVQSGAEVKKPGSSVKVSCKASGYTFTDQTIHWMRQAPGQGLEWIGYIYPRDDSPKYNENFKGKVTITADKSTSTAYMELSSLRSEDTAVYYCAIPDRSGYAWFIYWGQGTLVTVSSLGGGSGASTKGPSVFPLAPSSKSTSGGTAALGCLVKDYFPEPVTVSWNSGALTSGVHTFPAVLQSSGLYSLSSVVTVPSSSLGTQTYICNVNHKPSNTKVDKRVEPKSCDKTHTCPPCPAPEAAGGPSVFLFPPKPKDTLYITREPEVTCVVVDVSHEDPEVKFNWYVDGVEVHNAKTKPREEQYNSTYRVVSVLTVLHQDWLNGKEYKCKVSNKALPAPIEKTISKAKGQPREPQVYTLPPSREEMTKNQVSLTCLVKGFYPSDIAVEWESNGQPENNYKTTPPVLDSDGSFFLYSKLTVDKSRWQQGNVFSCSVMHEALHNHYTQKSLSLSPG
chain 2: DIQMTQSPSSLSASVGDRVTITCKASRDVAIAVAWYQQKPGKVPKLLIYWASTRHTGVPSRFSGSGSRTDFTLTISSLQPEDVADYFCHQYSSYPFTFGSGTKLEIKGGGSGGGGQVQLQQSGAEVKKPGSSVRVSCKASGGTFNNNAINWVRQAPGQGLEWMGGIIPMFGTAKYSQNFQGRVAITADESTGTASMELSSLRSEDTAVYYCARSRDLLLFPHHALSPWGRGTMVTVSSLGGGSGRTVAAPSVFIFPPSDEQLKSGTASVVCLLNNFYPREAKVQWKVDNALQSGNSQESVTEQDSKDSTYSLSSTLTLSKADYEKHKVYACEVTHQGLSSPVTKSFNRGEC
